# Target: I-E^k (mouse MHC class II molecule, α- and β-subunits, six-histidine-tagged) (mouse)
# Assay: peptide exchange induced by ultraviolet irradiation
substance,measurement,value
MCC peptide labeled with indocarbocyanine (Cy3),percent of Lys99ANP–I-E^k converted into Cy3-labeled MCC–I-E^k,30%
